The record followed here is article PMC11480844 (2024).

B1: H2-Kb / Ed23 (parent complex)
chain 1: QQKVQQSPESLTVSEGAMASLNCTFSDRSSDNFRWYRQHSGKGLEVLVSIFSDGEKEEGSFTAHLNRASLHVFLHIREPQPSDSALYLCAVRGFWTNKVVFGTGTRLQVLP
chain 2: AQTIHQWPVAEIKAVGSPLSLGCTIKGKSSPNLYWYWQATGGTLQQLFYSITVGQVESVVQLNLSASRPKDDQFILSTEKLLLSHSGFYLCAWSPRQSSYEQYFGPGTRLTVL
chain 3: not shown
chain 4: IQKTPQIQVYSRHPPENGKPNILNCYVTQFHPPHIEIQMLKNGKKIPKVEMSDMSFSKDWSFYILAHTEFTPTETDTYACRVKHDSMAEPKTVYWDRDM
chain 5: SIINFEKL
B2: H2-Kb / Ed9 (parent complex)
chain 1: AQSVTQPDARVTVSEGASLQLRCKYSYFGTPYLFWYVQYPRQGLQLLLKYYPGDPVVQGVNGFEAEFSKSNSSFHLRKASVHWSDWAVYFCAVSITGGYKVVFGSGTRLLVSP
chain 2: DSGVVQSPRHIIKEKGGRSVLTCIPISGHSNVVWYQQTLGKELKFLIQHYEKVERDKGFLPSRFSVQQFDDYHSEMNMSALELEDSAMYFCASSPRQSDYTFGSGTRLLVI
chain 3: not shown
chain 4: B1 chain 4
chain 5: SIINFEKL
Note: test concentration or dose not given here.

One experiment covers variants of B1. Description: % of reporter cells activated (NFAT-GFP), raw.
In the case of chain 5 S1G, the ratio to parent was 0.896. Still for that read-out and setting: then chain 5 S1F, with 0.207; and chain 5 S1A, with 1.26. Same read-out and setting: the same measure for chain 5 S1P: 1.46; for chain 5 S1K: 0.558.

As for chain 5 S1T, the ratio to parent stood at 1.64. chain 5 S1C: the ratio to parent was determined as 0.722. Still for that read-out and setting: the same measure for chain 5 S1I: 0.218; for chain 5 S1V: 1.12; for chain 5 S1D: 0.735. chain 5 S1N: the ratio to parent turned out to be 0.27. On the same count and under the same terms, then chain 5 S1R, with 1.01. Same read-out and setting: then chain 5 S1Y, with 0.886.

With chain 5 S1H, the ratio to parent turned out to be 0.523. Still for that read-out and setting: then chain 5 F5V, with 1.33.

In the case of chain 5 F5W, the ratio to parent was 1.08. Same read-out and setting: the same measure for chain 5 F5T: 1.33. The same measure, in the same setting: the same measure for chain 5 F5M: 1.15; for chain 5 F5H: 1.37. For chain 5 F5C, the ratio to parent worked out at 1.3. For the variant chain 5 F5P, the ratio to parent turned out to be 0.864. Same read-out and setting: then chain 5 F5R, with 1.28; and chain 5 F5D, with 0.997; and chain 5 F5Y, with 1.32.

Turning to chain 5 F5K, the ratio to parent worked out at 1.19. The same measure, in the same setting: the same measure for chain 5 F5G: 0.894; for chain 5 F5I: 1.25; for chain 5 F5A: 1.36. The same measure, in the same setting: then chain 5 F5N, with 1.28; and chain 5 F5E, with 0.937. On the same count and under the same terms, the same measure for chain 5 F5S: 1.19; for chain 5 E6M: 0.486; for chain 5 E6T: 0.0505. chain 5 E6Q: the ratio to parent was found to be 0.604. On the same count and under the same terms, the same measure for chain 5 E6I: 0.0187; for chain 5 E6V: 0.0859. On to chain 5 E6H, for which the ratio to parent came out at 0.551. The same measure, in the same setting: then chain 5 E6R, with 0.316; and chain 5 E6P, with 0.0439; and chain 5 E6F, with 0.147.

Regarding chain 5 E6Y, the ratio to parent is 0.588. On the same count and under the same terms, then chain 5 E6K, with 1.14; and chain 5 E6S, with 0.0871; and chain 5 E6N, with 0.0348. Consider chain 5 E6L, for which the ratio to parent turned out to be 0.0247. For chain 5 E6W, the ratio to parent stood at 0.0503. Same read-out and setting: the same measure for chain 5 E6G: 1.28; for chain 5 E6D: 0.828. On the same count and under the same terms, then chain 5 E6A, with 0.157. The same measure, in the same setting: the same measure for chain 5 I2G: 0.952; for chain 5 I2F: 1.21. For the variant chain 5 I2C, the ratio to parent was found to be 1.38. As for chain 5 I2V, the ratio to parent was found to be 1.42.

On to chain 5 I2R, for which the ratio to parent worked out at 1.72. With chain 5 I2D, the ratio to parent came out at 1.31. The same measure, in the same setting: the same measure for chain 5 I2N: 1.49; for chain 5 I2S: 1.12; for chain 5 I2W: 1.07.

Take chain 5 I2M: the ratio to parent turned out to be 1.46.

Consider chain 5 I2K, for which the ratio to parent was found to be 1.54. As for chain 5 I2H, the ratio to parent turned out to be 1.36. Same read-out and setting: the same measure for chain 5 I2A: 1.3; for chain 5 I2Q: 1.39. The same measure, in the same setting: the same measure for chain 5 I2E: 1.39. For the variant chain 5 I2Y, the ratio to parent was found to be 0.96. On the same count and under the same terms, then chain 5 I2P, with 1.38; and chain 5 I2L, with 1.49; and chain 5 L8I, with 1.15. For the variant chain 5 L8C, the ratio to parent came to 1.06.

For the variant chain 5 L8K, the ratio to parent is 1.23. For chain 5 L8G, the ratio to parent is 1.11.

On to chain 5 L8R, for which the ratio to parent was 1.26. Still for that read-out and setting: the same measure for chain 5 L8Y: 1.24; for chain 5 L8P: 1.24; for chain 5 L8Q: 1.21. Still for that read-out and setting: then chain 5 L8N, with 1.05; and chain 5 L8V, with 0.856. Same read-out and setting: then chain 5 L8F, with 1.13; and chain 5 L8W, with 0.934. Take chain 5 K7G: the ratio to parent came to 1.18. Still for that read-out and setting: the same measure for chain 5 K7R: 1.42; for chain 5 K7N: 0.785; for chain 5 K7F: 0.0793. The same measure, in the same setting: then chain 5 K7W, with 0.975. The same measure, in the same setting: the same measure for chain 5 K7L: 0.477. For chain 5 K7S, the ratio to parent stood at 1.

As to chain 5 K7T, the ratio to parent came out at 0.145. The same measure, in the same setting: the same measure for chain 5 K7M: 1.12.

As to chain 5 K7H, the ratio to parent turned out to be 0.333. On the same count and under the same terms, the same measure for chain 5 K7P: 0.798; for chain 5 K7C: 0.919. Still for that read-out and setting: then chain 5 K7V, with 0.48. As to chain 5 K7A, the ratio to parent turned out to be 0.598.

Consider chain 5 I3V, for which the ratio to parent came out at 1.41.

For the variant chain 5 I3Q, the ratio to parent amounted to 1.22. Regarding chain 5 I3S, the ratio to parent stood at 1.23.

With chain 5 I3A, the ratio to parent stood at 1.06. As to chain 5 I3D, the ratio to parent is 0.768. For chain 5 I3W, the ratio to parent was found to be 0.975. On the same count and under the same terms, then chain 5 I3R, with 0.636. On the same count and under the same terms, the same measure for chain 5 I3K: 0.952; for chain 5 I3G: 1.04; for chain 5 I3L: 1.4. On the same count and under the same terms, then chain 5 I3Y, with 0.17; and chain 5 N4W, with 1.13.

Regarding chain 5 N4M, the ratio to parent amounted to 0.269. For chain 5 N4I, the ratio to parent came out at 0.277. Same read-out and setting: the same measure for chain 5 N4D: 0.0424; for chain 5 N4Y: 0.813.

For the variant chain 5 N4T, the ratio to parent stood at 0.342. Same read-out and setting: the same measure for chain 5 N4S: 0.42. Regarding chain 5 N4F, the ratio to parent was determined as 0.586. For the variant chain 5 N4H, the ratio to parent amounted to 1.04.

As to chain 5 N4V, the ratio to parent turned out to be 0.207.

As for chain 5 N4K, the ratio to parent came to 0.869. The same measure, in the same setting: then chain 5 N4E, with 0.415. Still for that read-out and setting: the same measure for chain 5 N4A: 0.18. Consider chain 5 N4R, for which the ratio to parent came to 1.22.

Another experiment covers variants of B2. As to the kind of experiment: % of reporter cells activated (NFAT-GFP), raw.
As for chain 5 E6Y, the ratio to parent turned out to be 0.0945.

As for chain 5 F5S, the ratio to parent was 1.31. On to chain 5 F5E, for which the ratio to parent is 1.03. In the case of chain 5 F5Y, the ratio to parent is 1.22. The same measure, in the same setting: then chain 5 F5N, with 1.15; and chain 5 I3A, with 0.184; and chain 5 I3Y, with 0.0606. Same read-out and setting: then chain 5 N4Q, with 0.0236; and chain 5 N4A, with 0.0077. On to chain 5 N4S, for which the ratio to parent turned out to be 0.0154.

On to chain 5 N4V, for which the ratio to parent was determined as 0.0308.

For the variant chain 5 N4F, the ratio to parent came to 0.012. Still for that read-out and setting: then chain 5 N4P, with 0.0766; and chain 5 N4E, with 0.00953.

chain 5 I2F: the ratio to parent was determined as 1.13. On the same count and under the same terms, then chain 5 I2Q, with 0.82. Same read-out and setting: the same measure for chain 5 S1P: 0.0373; for chain 5 S1D: 0.125; for chain 5 S1I: 0.0106. chain 5 S1V: the ratio to parent stood at 0.0112. The same measure, in the same setting: then chain 5 K7M, with 0.546. The same measure, in the same setting: the same measure for chain 5 K7E: 0.226; for chain 5 K7T: 0.957; for chain 5 L8N: 0.883.

With chain 5 L8W, the ratio to parent turned out to be 1.

For the variant chain 5 L8G, the ratio to parent stood at 1. Same read-out and setting: the same measure for chain 5 L8T: 1.09. On the same count and under the same terms, the same measure for chain 5 L8Y: 1.23. In the case of chain 5 L8K, the ratio to parent was found to be 1.09.

Take chain 5 L8S: the ratio to parent worked out at 0.899. The same measure, in the same setting: then chain 5 L8F, with 1.14; and chain 5 L8I, with 1.17.
